Laboratory results taken from patent US20240116985A1 (published 2024).
Starred links: 1 amine or outer side, 2 acyl side, 3 side chain; linkers in the order of their positions; H or OH if unused. Positions of bridges follow the written chain, without caps; N, C: chain ends. Non-standard residues stand in square brackets, D forms with d. Primed or numbered codes have the meaning given here. B5(26) = 2-amino-2-(pent-4-en-1-yl)hept-6-enoic acid (bis-pentenylglycine), stitching residue carrying two staples, C=CCCCC(CCCC=C)(N[*:1])C(=O)[*:2]; B5(23) = 2-amino-2-(pent-4-en-1-yl)hept-6-enoic acid (2,2-bis(4-pentenyl)glycine), stitching residue, C=CCCCC(CCCC=C)(N[*:1])C(=O)[*:2]; B5(24) = 2-amino-2-(pent-4-en-1-yl)hept-6-enoic acid, 2,2-bis(4-pentenyl)glycine (stitching residue), C=CCCCC(CCCC=C)(N[*:1])C(=O)[*:2]; B5(4) = 2,2-bis(4-pentenyl)glycine = 2-amino-2-(pent-4-en-1-yl)hept-6-enoic acid (stitching residue), C=CCCCC(CCCC=C)(N[*:1])C(=O)[*:2]; B5(21) = 2-amino-2-(pent-4-en-1-yl)hept-6-enoic acid, bis(4-pentenyl)glycine (stitching residue), C=CCCCC(CCCC=C)(N[*:1])C(=O)[*:2]; B5″ = 2,2-bis(4-pentenyl)glycine, stitching residue, C=CCCCC(CCCC=C)(N[*:1])C(=O)[*:2]; S(OMe) = O-methyl-L-serine, COC[C@H](N[*:1])C(=O)[*:2]; Phe(2-Br) = N[C@@H](Cc1ccccc1Br)C(=O)O; Phe(2-Cl) = N[C@@H](Cc1ccccc1Cl)C(=O)O; His(τ-Me) = Cn1cnc(C[C@H](N)C(=O)O)c1; Phe(2-F) = N[C@@H](Cc1ccccc1F)C(=O)O; Bta = N[C@@H](Cc1csc2ccccc12)C(=O)O; His(π-Me) = Cn1cncc1C[C@H](N)C(=O)O; αAllylPro = C=CC[C@@]1(C(=O)O)CCCN1; S8 = C=CCCCCCC[C@](C)(N)C(=O)O; NMeS = CN[C@@H](CO)C(=O)O

T1: full-length beta-Catenin (Uniprot ID P35222) (Homo sapiens (Human), UniProt P35222 1-781)
T1 construct: also called bCat; B-Catenin
T1 sequence: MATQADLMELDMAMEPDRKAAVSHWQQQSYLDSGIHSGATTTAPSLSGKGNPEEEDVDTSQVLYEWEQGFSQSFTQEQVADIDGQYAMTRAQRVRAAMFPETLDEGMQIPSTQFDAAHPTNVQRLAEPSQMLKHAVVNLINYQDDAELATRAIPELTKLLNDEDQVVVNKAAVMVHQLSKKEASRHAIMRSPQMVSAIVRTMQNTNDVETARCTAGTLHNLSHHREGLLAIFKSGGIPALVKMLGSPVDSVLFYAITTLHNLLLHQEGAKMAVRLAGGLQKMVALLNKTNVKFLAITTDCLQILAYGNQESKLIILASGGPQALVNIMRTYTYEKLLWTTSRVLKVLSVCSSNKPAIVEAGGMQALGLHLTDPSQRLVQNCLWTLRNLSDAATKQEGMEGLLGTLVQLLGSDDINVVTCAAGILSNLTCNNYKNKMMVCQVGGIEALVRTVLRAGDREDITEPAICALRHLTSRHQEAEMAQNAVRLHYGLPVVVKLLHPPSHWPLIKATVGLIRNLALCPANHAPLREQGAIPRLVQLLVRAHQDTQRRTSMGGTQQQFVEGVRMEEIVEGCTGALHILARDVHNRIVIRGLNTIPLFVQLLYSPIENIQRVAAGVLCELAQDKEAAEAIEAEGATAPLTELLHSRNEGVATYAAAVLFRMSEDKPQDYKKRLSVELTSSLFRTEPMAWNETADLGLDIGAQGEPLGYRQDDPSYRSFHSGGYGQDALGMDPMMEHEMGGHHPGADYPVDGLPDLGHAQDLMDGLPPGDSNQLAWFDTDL

T2: full-length beta-Catenin (Uniprot ID P35222) (Homo sapiens (Human), UniProt P35222 1-781)
T2 construct: The assay text says 'full-length'; also called bCat; B-Catenin
T2 sequence: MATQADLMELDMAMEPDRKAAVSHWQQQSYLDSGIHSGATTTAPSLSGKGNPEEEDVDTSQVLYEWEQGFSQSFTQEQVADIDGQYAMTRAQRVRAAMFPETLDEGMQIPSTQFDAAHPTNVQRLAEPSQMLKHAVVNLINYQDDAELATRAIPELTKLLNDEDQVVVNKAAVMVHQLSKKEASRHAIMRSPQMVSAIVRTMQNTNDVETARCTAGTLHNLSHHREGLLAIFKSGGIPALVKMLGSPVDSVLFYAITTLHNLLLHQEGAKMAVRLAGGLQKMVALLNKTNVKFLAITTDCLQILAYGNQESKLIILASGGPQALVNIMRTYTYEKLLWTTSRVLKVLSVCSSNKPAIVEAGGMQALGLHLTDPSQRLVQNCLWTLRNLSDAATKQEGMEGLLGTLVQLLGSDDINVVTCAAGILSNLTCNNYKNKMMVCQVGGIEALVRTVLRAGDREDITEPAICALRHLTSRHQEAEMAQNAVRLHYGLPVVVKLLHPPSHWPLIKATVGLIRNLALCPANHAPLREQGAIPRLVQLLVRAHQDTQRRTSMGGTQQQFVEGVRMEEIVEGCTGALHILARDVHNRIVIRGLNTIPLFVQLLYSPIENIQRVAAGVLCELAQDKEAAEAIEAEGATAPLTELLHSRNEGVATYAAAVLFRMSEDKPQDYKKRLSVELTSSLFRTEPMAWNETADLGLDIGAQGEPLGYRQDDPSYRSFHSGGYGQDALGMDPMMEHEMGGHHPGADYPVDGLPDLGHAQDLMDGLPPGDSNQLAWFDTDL


Each binder was assayed against T1, full-length beta-Catenin (Uniprot ID …) (assay: fluorescence polarization competition; full-length beta-catenin with 5FAM-TCF4(10-53) probe as competitor).
Procedure: (§1) The plate was incubated protected from light for 60 minutes at 20° C. prior to read. Reads were performed on a CLARIOstar plate reader (BMG Labtech) in duplicate, and data were fitted to a 1:1 binding model with hill slope using an in-house script. All provided concentrations are final concentrations.

IC50 [nM] | Binder
64 | Ac-[αAllylPro]DL[B5(4)]DEAAFN[S8]F[Bta][dN]-NH2 (staple 1-4, 4-11; also: earlier eluting HPLC peak (staple isomer), Stapled peptide; same description as I-758, earlier eluting HPLC peak (staple isomer composition); also called Ac-PL3-Asp-Leu-B5-Asp-Glu-Ala-Ala-Phe-Asn-S8-Phe-BztA-dAsn-NH2) [I-757]
115 | XDLXDEAAFNXFXT (not fully specified; Ac-PL3-Asp-Leu-B5-Asp-Glu-Ala-Ala-Phe-Asn-S8-Phe-BztA-dThr-NH2: N-terminal acetyl; C-terminal amide; PL3 at 1, B5 at 4, S8 at 11 (stapled 1-4 and 4-11 by olefin metathesis); BztA at 13; D-Thr at 14, Stapled peptide; also called Ac-PL3-Asp-Leu-B5-Asp-Glu-Ala-Ala-Phe-Asn-S8-Phe-BztA-dThr-NH2) [I-754]
88 | Ac-[αAllylPro]DL[B5(4)]DEAAFN[S8]F[Bta][dT]-NH2 (staple 1-4, 4-11; also: later eluting HPLC peak (staple isomer), Stapled peptide; also called Ac-PL3-Asp-Leu-B5-Asp-Glu-Ala-Ala-Phe-Asn-S8-Phe-BztA-dThr-NH2) [I-755]
47 | Ac-[αAllylPro]DL[B5(4)]DEAAFN[S8]F[Bta][dN]-NH2 (staple 1-4, 4-11; also: later eluting HPLC peak (staple isomer), Stapled peptide; also called Ac-PL3-Asp-Leu-B5-Asp-Glu-Ala-Ala-Phe-Asn-S8-Phe-BztA-dAsn-NH2) [I-758]
1530 | Ac-[αAllylPro]DL[B5(4)]DEAAFN[S8]F[Bta][NMeS]-NH2 (staple 1-4, 4-11; also: earlier eluting HPLC peak (staple isomer), Stapled peptide; same description as I-760, earlier eluting HPLC peak (staple isomer composition); also called Ac-PL3-Asp-Leu-B5-Asp-Glu-Ala-Ala-Phe-Asn-S8-Phe-BztA-NMeS-NH2) [I-759]
608 | Ac-[αAllylPro]DL[B5″]DEAAFN[S8]F[Bta][NMeS]-NH2 (staple 1-4, 4-11, Stapled peptide; also called Ac-PL3-Asp-Leu-B5-Asp-Glu-Ala-Ala-Phe-Asn-S8-Phe-BztA-NMeS-NH2) [I-760]

Each binder was assayed against T2, full-length beta-Catenin (Uniprot ID …) (assay: fluorescence polarization competition; peptide titrated against 10 nM full-length beta-catenin + 10 nM 5FAM-TCF4(10-53) probe).
Procedure: as §1

IC50 [nM] | Binder
56 | Ac-[αAllylPro]DA[B5(24)]DEAAFN[S8][Phe(2-Br)][Bta]Q-NH2 (staple 1-4, 4-11, Stapled peptide composition) [I-436]
67.5 | Ac-[αAllylPro]DA[B5(24)]DEAAFN[S8][Phe(2-F)][Bta]Q-NH2 (staple 1-4, 4-11, Stapled peptide composition) [I-434]
105 | Ac-[αAllylPro]DA[B5(23)]DEAAFT[S8]F[Bta]Q-NH2 (staple 1-4, 4-11, Stapled peptide composition) [I-423]
5000 | Ac-[αAllylPro]DA[B5(21)]DEAAFN[S8][His(τ-Me)][Bta]Q-NH2 (staple 1-4, 4-11, Stapled peptide composition) [I-439]
5000 | XDAXDEAAFNXHXQ (not fully specified; N-terminal Ac, C-terminal NH2; non-natural PL3(1), B5(4), S8(11), 1meH(12), BztA(13); staples PL3-B5 and B5-S8 (olefin metathesis), Stapled peptide composition) [I-440]
136 | Ac-[αAllylPro]DA[B5(24)]DEAAF[S(OMe)][S8]F[Bta]Q-NH2 (staple 1-4, 4-11, Stapled peptide composition) [I-433]
5000 | Ac-[αAllylPro]DA[B5(26)]DEAAFN[S8][His(π-Me)][Bta]Q-NH2 (staple 1-4, 4-11, Stapled peptide composition) [I-438]
70 | Ac-[αAllylPro]DA[B5(24)]DEAAFN[S8][Phe(2-Cl)][Bta]Q-NH2 (staple 1-4, 4-11, Stapled peptide composition) [I-435]
